The nanobody polyreactivity screen of Harvey et al. (2022)

Assay: yeast display, Sf9 membrane polyspecificity reagent, FACS + sequencing; frameworks hold sequencing errors
How it was run: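 In a synthetic yeast display library (Saccharomyces cerevisiae BJ5465), nanobody expression was induced with galactose for 36–48 hours. FACS gates were set low and high (top ~1%) using anti-HA fluorescence for expression and streptavidin fluorescence for binding of the Sf9 membrane reagent. Each polyreactivity label is drawn from the gate of origin.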

QVQLVESGGGLVQAGGSLRLSCAASGSIFVRYTMAWYRQAPGKERELVAAISWGGGSTYYADSVKGRFTISRDNAKYTVYLQMNSLKPEDTAVYFCNKRYIQLYDYWGQGTQVTVSS
polyreactivity (PSR sort gate): low polyreactivity

QVQLVESGGGLVQAGGSLRLSCAASGSIFVSEYVMGLSRPAPGKERELVARIRWSSGSTYYADSVKGRFTISRDNAKNTVYLQIYSLKPEDTAVYYCNKDYYYVIGWTYHRSYHYDYWGQGTQVTVSS
polyreactivity (PSR sort gate): low polyreactivity

QVQLVESGGGLVQAGGSLRLSCAASGSIFVSYAMVWYRQAPGKERELVAAITRSGGSTYYADSVKGRFTISRDNAKNTVYLQMNSLKPEDTAVYYCAARSYLGAYRRYYWGQGTQVTVSS
polyreactivity (PSR sort gate): high polyreactivity

QVQLVESGGGLVQAGGSLRLSCAASGSIFVSYARGWYRQAPGKERELVAAITGRTGSTYYADSVKGRFTISRDNAKNTVYLQMNSLKAEDTGVYYCAARHKQHNRYDYWGQGTKVTVSS
polyreactivity (PSR sort gate): low polyreactivity

QVQLVESGGGLVQAGGSLRLSCAASGSIFVTNAMGWYRQAPGKERELVAAINQGGGSTYYADSVKGRFTISRDNAKNTVYLQMNSLKPEDTAVYYCATDAPYFVPFSTNGEFGDEYWGQGTQVTVSS
polyreactivity (PSR sort gate): low polyreactivity

QVQLVESGGGLVQAGGSLRLSCAASGSIFVTNAMGWYRQAPGKERELVAAISVSGGSTYYADSVKGRFTISRDNAKNTVYLQMNSLKPEDTGVYYCAADGYIGWRHIYEYWGQGTQVTVSS
polyreactivity (PSR sort gate): low polyreactivity

QVQLVESGGGLVQAGGSLRLSCAASGSIFVTYAMGSYRQAPGKERELVAAITSIGGTTYYSDSVKGRFTISRDNAKNTVYLQMNSLKPEDTAVYYCAVDGGEFSSYGYWGQGTEVTVSS
polyreactivity (PSR sort gate): low polyreactivity

QVQLVESGGGLVQAGGSLRLSCAASGSIFVTYAMGWYRQAPGKERELVAAISTSGGSTYADSVKGRFTISRDNAKNTVYLQMNSLKPEDTAVYYCNADDPGYAVPWYWFKYDYWGQGTQVTGSS
polyreactivity (PSR sort gate): low polyreactivity

QVQLVESGGGLVQAGGSLRLSCAASGSIFVTYAMGWYRQAPGKERELVAAITGRDGITYADSVKGRFTISCDNAKNTVYVQMNSLKPEDTAVYYCAAVSHGVYYQYRRRYYSWGQGTQVTVSS
polyreactivity (PSR sort gate): high polyreactivity

QVQLVESGGGLVQAGGSLRLSCAASGSIFVVYAMGWYRQAPGKERELVAAITADDDTNYADSVKGRFTISRDNAKNTDYLQMNSLKPEDTAVYYCAKEVWLAINTRTGYEVYYWGQGTQVTVSS
polyreactivity (PSR sort gate): low polyreactivity

QVQLVESGGGLVQAGGSLRLSCAASGSIFVWNARGWYRQAPVKERELVAAISYTDGSTYYADFVKGRFTISRDNAKNTVYLQMNSLKPEDTAVYFCAAAITRSYTGSEYDYWGQGTEVTVSS
polyreactivity (PSR sort gate): low polyreactivity

QVQLVESGGGLVQAGGSLRLSCAASGSIFVWYAMGWYRQEPGKERELVATISSRGGTTYYADSVKGRFTISRDNAKNTVYLQMNSLKPEDTAVYYCNAKRRAQYGYRVFRYDYWGQGTQVTVSS
polyreactivity (PSR sort gate): high polyreactivity

QVQLVESGGGLVQAGGSLRLSCAASGSIFVWYDLGWYRQAPGKERELVATISLSGVSTYYADSVKGRFTISRDNAKNTVYLQMNSLKPEDTAVYYCAADFVEQGEDDYWGQGTQVTVSS
polyreactivity (PSR sort gate): low polyreactivity

QVQLVESGGGLVQAGGSLRLSCAASGSIFVYNAMGWYRQAPGKERELVAAITTGGSTNYADSVKGRFTISRDNAKNTVYLQMNSLKPEDTAVYDCNAVHEASYAGVDYWGQGTQVTVSS
polyreactivity (PSR sort gate): low polyreactivity

QVQLVESGGGLVQAGGSLRLSCAASGSIFVYNAMGWYRQAPGKERELVAAITWSGGNTYYADSVKGRFTISRDNAKNTVYLEMNSLKPEDTAVSYCPAEFWQQGGWWEYDYWGQGTQVTVSS
polyreactivity (PSR sort gate): low polyreactivity

QVQLVESGGGLVQAGGSLRLSCAASGSIFVYNAMGWYRQAPVKERELVAVITLRSGSTNYADSVKGRFTISRDNEKNTVYLQMNSLKPEDTAVYYCAADDTYHDYQRDTDDDYWGQGTQVTVSS
polyreactivity (PSR sort gate): low polyreactivity

QVQLVESGGGLVQAGGSLRLSCAASGSIFVYYAMGWYRQAPGKERELVAAISSTGGRTYYADSVKGRFTISRDNAKNTVYLQMNSLKPEDTAVYYCNAARTGYRYYDWFYDYDYWGQGTQVTVSS
polyreactivity (PSR sort gate): low polyreactivity

QVQLVESGGGLVQAGGSLRLSCAASGSIFVYYSMGWYRQAPGKERELVATISSGASTYYADSVKGRFTISRDNAKNTVYLQMNSLKPEDTAVYYCNADNLAGSVEHDYWGQGTQVTVSS
polyreactivity (PSR sort gate): low polyreactivity

QVQLVESGGGLVQAGGSLRLSCAASGSIFWDYAMGRYRQAPGKERELVASITSGGSTYYADSVKGRFTISRDNAKNTVYLQMNSLKPEDTAVYYCAADGHTRHWGQTGRGAMYYWGQGTQVTVSS
polyreactivity (PSR sort gate): low polyreactivity

QVQLVESGGGLVQAGGSLRLSCAASGSIFWFNAMGWYRQAPGKEREFVASISRSGGTTYYAHSVKGRFTISRDNAKNTVYLQMNSLKPEDTAVYYFNARAYGNGLGTGYFGKHRYDYWGQGTQVTVSS
polyreactivity (PSR sort gate): low polyreactivity

QVQLVESGGGLVQAGGSLRLSCAASGSIFWGYAMGWYRQAPGKERELVASIGGDSTNYADSVKGRFTISRDNAKNTVYIQMNSLKQEYTPVYYCAARYRTDYYPEYEYWGQGTEVTVSS
polyreactivity (PSR sort gate): low polyreactivity

QVQLVESGGGLVQAGGSLRLSCAASGSIFWGYAMGWYRQAPGKERELVATITYGGDSTYYADSVKGRFTISRDNANNTVFLQMNSLKTEDTAVYYCNVGVEPYDYDYWGQCTQVTVSS
polyreactivity (PSR sort gate): low polyreactivity

QVQLVESGGGLVQAGGSLRLSCAASGSIFWGYEMGSYRQAPGKERELVAAINRGGSTYYADSVKGRFTRSRDNAKNTVYLQMNSLKPEDTAVYYCAAGYPSWYYGYPYDSWGQGTQVTVSS
polyreactivity (PSR sort gate): low polyreactivity

QVQLVESGGGLVQAGGSLRLSCAASGSIFWLYAMGWYRQATGKERELVAAINWTGGSTNYADSVKGRFTISRDNAKNTVYLQMNSLKPEDTAVYFCAAEGVPDALDRVYWGQGTQVTVSS
polyreactivity (PSR sort gate): low polyreactivity

QVQLVESGGGLVQAGGSLRLSCAASGSIFWPNAMGWYRQAPGKERELVAAIRRSGGSTYYADSVKGRFTISRDNAKNTVYLQMNSLKPEDTAVYYCAARADLHRRVRNIYYSWGQGTQVTVSS
polyreactivity (PSR sort gate): low polyreactivity

QVQLVESGGGLVQAGGSLRLSCAASGSIFWPNSMGWYRQAPGKERELVAAISWGTGSTYYADSVKGRFTISRDNAKNTVYLQMNSLKPEDTAVYYCAADGAYLDPYYDYWGQGTQVTVSS
polyreactivity (PSR sort gate): low polyreactivity

QVQLVESGGGLVQAGGSLRLSCAASGSIFWPYAMGWYRQAPGKEREFVATISSSGSRTHYADSVKGRFTISRDNAKNTVSLQMNSLKPEDTAVYYCNADNPYSDGADSLGNYWGQGTQVTVSS
polyreactivity (PSR sort gate): low polyreactivity

QVQLVESGGGLVQAGGSLRLSCAASGSIFWQNGMGWYRQAPGKEREFVAAITRTGGSTYYADSVKGRFTISRDNAKNTVYLQMNSLKPEDTAVYYCAARGGYRYTRYDYWGQGTQVTVSS
polyreactivity (PSR sort gate): high polyreactivity

QVQLVESGGGLVQAGGSLRLSCAASGSIFWRNAMGWYRQAPGKERALVAAISGNGGTTYYADSVKGRFTISRDYAKNTVYLQINSLKPEDTAVYYCAKVGKTYRTYEDWGQGTQVTVSS
polyreactivity (PSR sort gate): high polyreactivity

QVQLVESGGGLVQAGGSLRLSCAASGSIFWSNAMGWYRQAPGKERELVAAINQSGTSTYYADSVKGRFTISRDNAKNTVYLQMNSLKTEDTAVYYCAADQVGWTYDYWGQGTQVSVSS
polyreactivity (PSR sort gate): low polyreactivity

QVQLVESGGGLVQAGGSLRLSCAASGSIFWSNAMGWYRQAPGKERELVAAITWSGGSTYADSVKGRFTISRDNAKNTVYLQMNSLKPEDTAVYYCAAERAILSSDKQSLWRFDYWGQGTQVTVSS
polyreactivity (PSR sort gate): low polyreactivity

QVQLVESGGGLVQAGGSLRLSCAASGSIFWSNAMGWYRQAPGKERELVAAITWSGGSTYADSVKGRFTISRDNAKNTVYLQMNSLKPEDTAVYYCATDYPWAWFESDYWGQGTQVTVSS
polyreactivity (PSR sort gate): low polyreactivity

QVQLVESGGGLVQAGGSLRLSCAASGSIFWSNDMGWYRQAPGKERELVAAITITGDTTYYADSVKGRFTISRDNAKNTVYLQMNSLKPEDTAVYYCAAVEVRRVADYGFCLLDYWGQGTQVTVSS
polyreactivity (PSR sort gate): high polyreactivity

QVQLVESGGGLVQAGGSLRLSCAASGSIFWSYAMGWYRQAPGKERELVAAITWGCGSTNYADSVKGRFTISRDNAKNTVYLQMNSLIAEDTGVYYCATDNRYVVDYDYWGQGTQVTVSS
polyreactivity (PSR sort gate): high polyreactivity

QVQLVESGGGLVQAGGSLRLSCAASGSIFWTIAMGWYRQSPGKERELVASIHSSDASTDYADSVKGRFTISRDNAKNTVYLKMNSLKPEDTAVYYCNAAGAYPYYSEDYYWGQGTQVTVSS
polyreactivity (PSR sort gate): low polyreactivity

QVQLVESGGGLVQAGGSLRLSCAASGSIFWTNAMGCYRQAPGKERELVASIHSSDASTDYADSVKGRFTISRDNEKNTVYLQMNSLKPEDTAVYYCNAAGAYPYYSEDYYWGQGSQVTVSS
polyreactivity (PSR sort gate): low polyreactivity

QVQLVESGGGLVQAGGSLRLSCAASGSIFWTNAMGWYRQAPGKERELVAAIRVSTGSTYYADSVKGRFTISRDNAKNTVYLQMNSLKPEVTAVYYFAARTYGWGYDYWGQGTQVTVSS
polyreactivity (PSR sort gate): low polyreactivity

QVQLVESGGGLVQAGGSLRLSCAASGSIFWVYAMGWYRQAPGKEREFVATISTDGGSTHYADSVKGRFTISRDNAKNTFYLQMNSLKPEDTAVYYCAADTPWYDDNYDYWGQGTQVTVSS
polyreactivity (PSR sort gate): low polyreactivity

QVQLVESGGGLVQAGGSLRLSCAASGSIFWVYTMGWYREAPGKERELVAASRSRGGSTYYADSVKGRFTISRDKAKNTVYLQMNSLKPEDTAVYYGNADYYYEVDSWGQGTQVTVSS
polyreactivity (PSR sort gate): low polyreactivity

QVQLVESGGGLVQAGGSLRLSCAASGSIFWWNAMGWYRQAPGKERELVAGISRGGSTYYADSVKGRFTISRDNAKNTVYLQMNSLKPEDTAVYYCNADSDPVPAGYDYWGQGTQVTLSS
polyreactivity (PSR sort gate): low polyreactivity

QVQLVESGGGLVQAGGSLRLSCAASGSIFWWNAMGWYRQAPGKERELVARITRGGTTYYADSVKGRFTISRDNAKNTVYLQMNSLKPEDTAVYSCNAVSGWSRYDFWGQGSQVTVSS
polyreactivity (PSR sort gate): low polyreactivity

QVQLVESGGGLVQAGGSLRLSCAASGSIFWWNTMGWYRQAPGTERELVAAITFSGGSTYYADSVKGRFTISRDNAKNTVYLQMNSLKPEDTAVYYCNADGWVSVRGTWSDGGYWGQGTQVTVSS
polyreactivity (PSR sort gate): low polyreactivity

QVQLVESGGGLVQAGGSLRLSCAASGSIFWYNAMGWYRQAPGKERELVAAIRWRGGSTYYADSVKGRFTISRDNAKNTVYLQMNSLKPEDTAVYYCAAQVYVSQLYTSYYYWGQGTQVTVSS
polyreactivity (PSR sort gate): high polyreactivity
